Measured values reported in publication PMC5394796 (Journal of molecular biology, 2016).

Biological target: the molecule itself
Experiment: disulfide-linked dimer fraction in lipid vesicles by SDS-PAGE

## SSPGTPASPCSLSGIIIGVTVAAVVLIVAVFVSKSLLWKK [DR5-L TM peptide (synthetic 40-residue DR5-L transmembrane domain)]
  stoichiometry N: 2
